Measured values: paper PMC11055865

Target: MCM8-9 complex (FLAG-tagged MCM8 and MBP-tagged MCM9), wild type (human) (UniProt Q9UJA3)
Assay: mass photometry; MCM8-9 preincubated with HROB (both 1 μM) 10 min at room temperature in 25 mM Tris-HCl pH 7.5, 3 mM EDTA, 50 mM NaCl, then rapidly diluted to 200 nM; complex largely fell apart upon dilution

Sequence of MCM8-9 complex (FLAG-tagged MCM8 and MBP-tagged MCM9), wild type (human) (Q9UJA3 whole entry, chain 1 of 2): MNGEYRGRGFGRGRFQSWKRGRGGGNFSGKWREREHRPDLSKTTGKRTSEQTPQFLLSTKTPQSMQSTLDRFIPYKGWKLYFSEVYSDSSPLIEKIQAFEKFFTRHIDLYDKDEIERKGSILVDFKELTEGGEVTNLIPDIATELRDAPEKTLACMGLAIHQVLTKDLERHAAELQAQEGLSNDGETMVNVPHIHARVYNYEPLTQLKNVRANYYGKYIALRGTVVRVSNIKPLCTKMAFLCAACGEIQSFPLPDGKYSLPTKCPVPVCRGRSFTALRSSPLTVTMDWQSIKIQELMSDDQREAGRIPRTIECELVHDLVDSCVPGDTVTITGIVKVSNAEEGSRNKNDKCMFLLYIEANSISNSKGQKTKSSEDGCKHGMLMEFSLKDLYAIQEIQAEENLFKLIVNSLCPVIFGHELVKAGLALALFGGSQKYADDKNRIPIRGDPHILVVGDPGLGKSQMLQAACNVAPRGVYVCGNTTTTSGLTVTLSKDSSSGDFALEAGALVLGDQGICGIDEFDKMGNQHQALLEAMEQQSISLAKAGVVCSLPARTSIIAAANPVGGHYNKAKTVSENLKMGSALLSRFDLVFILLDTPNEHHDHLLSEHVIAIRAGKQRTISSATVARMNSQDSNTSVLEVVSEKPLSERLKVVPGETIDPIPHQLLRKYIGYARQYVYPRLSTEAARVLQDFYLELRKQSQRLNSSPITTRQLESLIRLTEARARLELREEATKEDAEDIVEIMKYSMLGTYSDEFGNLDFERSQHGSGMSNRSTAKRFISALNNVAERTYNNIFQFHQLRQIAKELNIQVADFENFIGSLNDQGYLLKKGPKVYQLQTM
Sequence of MCM8-9 complex (FLAG-tagged MCM8 and MBP-tagged MCM9), wild type (human) (Q9NXL9 whole entry, chain 2 of 2, further chain): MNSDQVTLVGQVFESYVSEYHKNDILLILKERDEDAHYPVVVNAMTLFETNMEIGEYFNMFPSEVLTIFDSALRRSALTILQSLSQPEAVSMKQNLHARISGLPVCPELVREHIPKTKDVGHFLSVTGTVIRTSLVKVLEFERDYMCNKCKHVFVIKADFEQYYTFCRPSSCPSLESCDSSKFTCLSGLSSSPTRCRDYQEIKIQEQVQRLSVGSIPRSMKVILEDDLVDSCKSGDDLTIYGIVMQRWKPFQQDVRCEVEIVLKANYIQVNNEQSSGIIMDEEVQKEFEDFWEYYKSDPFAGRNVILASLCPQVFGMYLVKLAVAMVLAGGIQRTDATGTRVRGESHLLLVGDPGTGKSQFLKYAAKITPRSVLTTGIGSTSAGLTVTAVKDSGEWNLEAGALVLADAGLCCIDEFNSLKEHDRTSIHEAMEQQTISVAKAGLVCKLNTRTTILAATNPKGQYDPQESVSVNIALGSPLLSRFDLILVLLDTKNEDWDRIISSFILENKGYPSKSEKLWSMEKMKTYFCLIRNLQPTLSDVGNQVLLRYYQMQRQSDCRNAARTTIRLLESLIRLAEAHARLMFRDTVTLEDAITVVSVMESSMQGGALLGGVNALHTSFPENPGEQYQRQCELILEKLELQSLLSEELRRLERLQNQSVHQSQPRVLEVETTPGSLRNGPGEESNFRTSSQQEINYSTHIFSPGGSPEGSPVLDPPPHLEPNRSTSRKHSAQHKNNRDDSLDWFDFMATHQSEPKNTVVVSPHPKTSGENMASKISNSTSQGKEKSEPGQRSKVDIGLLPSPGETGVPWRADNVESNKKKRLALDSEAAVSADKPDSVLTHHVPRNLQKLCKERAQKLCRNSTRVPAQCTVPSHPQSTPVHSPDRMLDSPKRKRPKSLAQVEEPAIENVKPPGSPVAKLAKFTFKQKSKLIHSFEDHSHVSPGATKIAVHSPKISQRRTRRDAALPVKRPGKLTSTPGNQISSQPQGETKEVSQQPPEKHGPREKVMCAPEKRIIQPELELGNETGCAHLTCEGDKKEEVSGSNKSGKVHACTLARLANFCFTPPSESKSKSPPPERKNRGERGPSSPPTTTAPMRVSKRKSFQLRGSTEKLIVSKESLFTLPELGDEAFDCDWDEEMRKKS

stoichiometry N (HROB per MCM8-9 heterodimer): 1
Substance: HROB-FLAG (wild type HROB, homologous recombination factor with OB-fold) (from UniProt Q8N3J3-4 1-646) (natural protein)
